Reference: patent US20250290928A1, “METHOD, KIT AND DEVICE FOR DETECTING EXTRACELLULAR VESICLES” (priority 2022, published 2025)
No end group written: not given here. *: point of attachment. 5FAM = O=C1OC2(c3ccc(O)cc3Oc3cc(O)ccc32)c2ccc(C(=O)*)cc21; TQ2 = quencher; TQ3 = quencher

Target: T1, MMP14 in the MDA-MB-231-derived extracellular vesicles (Homo sapiens, UniProt P50281)
T1 construct: in terms of intact MMP14 with a molecular weight of 70 kDa
Assay: Digital detection through MMP14 activity of MDA-MB-231-derived extracellular vesicles captured on Tim4-immobilized magnetic particles
Format: biochemical
Method: Magnetic particles included in PS Capture (trademark) Exosome Flow Cytometry Kit (manufactured by FUJIFILM Corporation) were used as magnetic particles. In this kit, binding of an extracellular vesicle to a Tim4-immobilized magnetic particle is utilized.
800 μL of Exosome Capture Beads were aliquoted in a 1.5 mL microtube, vortexed for 5 seconds, spun down in a benchtop centrifuge, and then placed on a magnetic stand. After still standing for 1 minute, the supernatant was removed by pipetting. 1 mL of x1 WB (+Enhancer) prepared from x10 Washing Buffer and x100 Exosome Binding Enhancer included in the kit was added to the residue, the mixture was vortexed for 5 seconds, spun down in a benchtop centrifuge, and then placed on a magnetic stand. After still standing for 1 minute, the supernatant was removed by pipetting. This operation was repeated three times.
800 μL of the buffer (4) was added to the magnetic particle pellets, and the mixture was vortexed for 30 seconds to provide a homogeneous magnetic particle suspension. 60 μL of the suspension was aliquoted into each of twelve 1.5 mL microtubes.
The concentration of the solution is 4 μg/mL. […] Further, the concentration of the x1/5 solution was set to be the highest concentration, and 10-fold dilution was performed in four stages. Thus, 10-fold dilution samples in a total of five stages were obtained.
The magnetic particle suspension that had been aliquoted in each amount of 60 μL in the section “(Preparation of Particles)” was vortexed for 5 seconds, spun down in a benchtop centrifuge, and then placed on a magnetic stand. After still standing for 1 minute, the supernatant was removed by pipetting.
After that, the above-mentioned mixed solution was spun down in a benchtop centrifuge, then placed on a magnetic stand, and left to stand still for 1 minute. After that, the supernatant was removed by pipetting, 300 μL of the buffer (4) was added to the residue, and the mixture was vortexed for 5 seconds. The mixture was spun down in a benchtop centrifuge, then placed on a magnetic stand, and left to stand still for 1 minute. The same operation was further repeated twice.
For detection of MMP14 activity, 1 mM Custom #1 and Custom #2 were diluted with the buffer (4) to prepare MMP14 detection solutions containing 5 μM Custom #1 and Custom #2, respectively.
The supernatant of the mixed solution of the magnetic particles and the extracellular vesicles subjected to the washing was removed by pipetting, and 60 μL of each of the MMP14 detection solutions was added to each of the magnetic particle pellets to prepare a reaction solution for wells.
Magnosphere (trademark) MS300/Streptavidin (manufactured by JSR Corporation) (hereinafter abbreviated as “MS300S”) was used as magnetic particles. The magnetic particles were modified with Tim4 through use of Biotin-labeled Exosome Capture included in MagCapture (trademark) Exosome Isolation Kit PS Ver. 2 (manufactured by FUJIFILM Corporation) (hereinafter abbreviated as “PS2”) to prepare Tim4-immobilized magnetic particles.
10 μL of Biotin-labeled Exosome Capture was added to the suspension, and the mixture was vortexed for 5 seconds so that the contents were mixed. The mixture was subjected to a reaction for 10 minutes while the contents were mixed by inversion at room temperature with a rotator. After that, the resultant was spun down in a benchtop centrifuge, and then placed on a magnetic stand. After still standing for 1 minute, the supernatant was removed by pipetting. 500 μL of x1 I/WB (±Enhancer) was added to the residue, and the mixture was vortexed for 5 seconds, spun down in a benchtop centrifuge, and then placed on a magnetic stand. After still standing for 1 minute, the supernatant was removed by pipetting. This operation was further repeated twice. […]

[1] = Example 49, PS Capture Tim4 particles, 30° C., 4 h
[2] = Table 52, particles modified with Tim4, MB231 concentration x1/5, 4 hr
[3] = Table 52, particles modified with Tim4, MB231 concentration x1/50, 4 hr
[4] = Table 52, particles modified with Tim4, MB231 concentration x1/500, 4 hr
[5] = Table 52, particles modified with Tim4, MB231 concentration x1/5,000, 4 hr
[6] = Table 52, particles modified with Tim4, MB231 concentration x1/50,000, 4 hr
[7] = Table 53, BG subtracted, MB231 concentration x1/50, 4 hr
[8] = Table 53, BG subtracted, MB231 concentration x1/500, 4 hr
[9] = Table 53, BG subtracted, MB231 concentration x1/5,000, 4 hr
[10] = Table 53, BG subtracted, MB231 concentration x1/50,000, 4 hr
[11] = Table 53, BG subtracted, MB231 concentration x1, 4 hr
[12] = Table 56, Particle MS300C, MB231 Present, 24 hours at 23° C.
[13] = Table 56, Particle Simoa, MB231 Present, 24 hours at 23° C.
[14] = Example 50, MS300S Tim4 particles, 30° C., 4 h
[15] = Table 53, BG subtracted, MB231 concentration x1/5, 4 hr
[16] = Table 54, particles immobilized with Tim4, MB231 concentration x1/5, 4 hr
[17] = Table 54, particles immobilized with Tim4, MB231 concentration x1/25, 4 hr
[18] = Table 54, particles immobilized with Tim4, MB231 concentration x1/125, 4 hr
[19] = Table 54, particles immobilized with Tim4, MB231 concentration x1/625, 4 hr
[20] = Table 54, particles immobilized with Tim4, MB231 concentration x1/3,125, 4 hr
[21] = Table 54, particles immobilized with Tim4, MB231 concentration x1/15,625, 4 hr
[22] = Table 54, particles immobilized with Tim4, MB231 concentration x1, 4 hr
[23] = Table 55, BG subtracted, MB231 concentration x1/5, 4 hr
[24] = Table 55, BG subtracted, MB231 concentration x1/25, 4 hr
[25] = Table 55, BG subtracted, MB231 concentration x1/125, 4 hr
[26] = Table 55, BG subtracted, MB231 concentration x1/625, 4 hr
[27] = Table 55, BG subtracted, MB231 concentration x1/3,125, 4 hr
[28] = Table 55, BG subtracted, MB231 concentration x1/15,625, 4 hr
[29] = Table 55, BG subtracted, MB231 concentration x1, 4 hr

“[5-FAM]GRIGFLRTAK(TQ2)[OH] (5FAM-GRIGFLRTAK(TQ2)-OH) [Custom #1]” was tested, and the “number of the extracellular vesicles” value (Example 49, 6×10^5 particles, 3 μg of protein at x1) was 1.04×10^6, the “expected value Δλ per particle (value obtained by subtracting BG) at a concentration of x1” value [1] was 1.7373 and the “number of the extracellular vesicles” value [1] was 3.47×10^5 /μg of protein. For the same substance, the “Particle Expected value λ” value [2] was 0.831, the “Particle Number of positives” value [2] was 1,240 and the “Particle Positive ratio” value [2] was 0.5644. For the same substance, the “Particle Expected value λ” value [3] was 0.06966, the “Particle Number of positives” value [3] was 165 and the “Particle Positive ratio” value [3] was 0.06729. For the same substance, the “Particle Expected value λ” value [4] was 0.03312, the “Particle Number of positives” value [4] was 89 and the “Particle Positive ratio” value [4] was 0.03258. For the same substance, the “Particle Expected value λ” value [5] was 0.01344, the “Particle Number of positives” value [5] was 41 and the “Particle Positive ratio” value [5] was 0.01335. For the same substance, the “Particle Expected value λ” value [6] was 0.01169, the “Particle Number of positives” value [6] was 30 and the “Particle Positive ratio” value [6] was 0.01162. For the same substance, the “Particle Expected value Δλ” value [7] was 0.05749, the “Particle Δ Number of positives” value [7] was 137 and the “Particle Δ Positive ratio” value [7] was 0.05587. For the same substance, the “Particle Expected value Δλ” value [8] was 0.02258, the “Particle Δ Number of positives” value [8] was 61 and the “Particle Δ Positive ratio” value [8] was 0.02233. The “Particle Expected value Δλ” value [9] was 0.00424, the “Particle Δ Number of positives” value [9] was 13 and the “Particle Δ Positive ratio” value [9] was 0.00423. For the same substance, the “Particle Expected value Δλ” value [10] was 0.00078, the “Particle Δ Number of positives” value [10] was 2 and the “Particle Δ Positive ratio” value [10] was 0.00077. The “Particle Expected value Δλ” value [11] was 0.8022, the “Particle Δ Number of positives” value [11] was 1,212 and the “Particle Δ Positive ratio” value [11] was 0.5517.
In the case of “TAMRA-GGPLGLAGGK(TQ3) ({TAMRA}-GGPLGLAGGK(TQ3)) [Custom #2T]”, the “Particle Expected value λ” value [12] was 0.2937, the “Particle Positive ratio” value [12] was 0.2545 and the “Particle Expected value λ” value [13] was 0.07748. For the same substance, the “Particle Positive ratio” value [13] was 0.07456.
In the case of “[5-FAM]GGPLGLAGGK(TQ2)[OH] (5FAM-GGPLGLAGGK(TQ2)-OH) [Custom #2]”, the “number of the extracellular vesicles” value [1] was 1.18×10^5 /μg of protein, the “number of the extracellular vesicles” value (Example 50, 6×10^5 particles, 2 μg of protein) was 1.77×10^5 and the “expected value Δλ per particle (value obtained by subtracting BG) at a concentration of x1” value [14] was 0.2953. For the same substance, the “number of the extracellular vesicles” value [14] was 8.86×10^4 /μg of protein, the “Particle Expected value λ” value [2] was 0.2744 and the “Particle Number of positives” value [2] was 557. The “Particle Positive ratio” value [2] was 0.24, the “Particle Expected value λ” value [3] was 0.09639 and the “Particle Number of positives” value [3] was 246. For the same substance, the “Particle Positive ratio” value [3] was 0.09189, the “Particle Expected value λ” value [4] was 0.03784 and the “Particle Number of positives” value [4] was 181. For the same substance, the “Particle Positive ratio” value [4] was 0.03714, the “Particle Expected value λ” value [5] was 0.01211 and the “Particle Number of positives” value [5] was 37. For the same substance, the “Particle Positive ratio” value [5] was 0.01204, the “Particle Expected value λ” value [6] was 0.00551 and the “Particle Number of positives” value [6] was 17. The “Particle Positive ratio” value [6] was 0.00549, the “Particle Expected value Δλ” value [15] was 0.2716 and the “Particle Δ Number of positives” value [15] was 552. For the same substance, the “Particle Δ Positive ratio” value [15] was 0.2378, the “Particle Expected value Δλ” value [7] was 0.09434 and the “Particle Δ Number of positives” value [7] was 241. For the same substance, the “Particle Δ Positive ratio” value [7] was 0.09003, the “Particle Expected value Δλ” value [8] was 0.03678 and the “Particle Δ Number of positives” value [8] was 176. For the same substance, the “Particle Δ Positive ratio” value [8] was 0.03611, the “Particle Expected value Δλ” value [9] was 0.01047 and the “Particle Δ Number of positives” value [9] was 32. For the same substance, the “Particle Δ Positive ratio” value [9] was 0.01041, the “Particle Expected value Δλ” value [10] was 0.00388 and the “Particle Δ Number of positives” value [10] was 12. For the same substance, the “Particle Δ Positive ratio” value [10] was 0.00388, the “Particle Expected value λ” value [16] was 0.1892 and the “Particle Number of positives” value [16] was 1,235. The “Particle Positive ratio” value [16] was 0.1723, the “Particle Expected value λ” value [17] was 0.1044 and the “Particle Number of positives” value [17] was 643. For the same substance, the “Particle Positive ratio” value [17] was 0.09911, the “Particle Expected value λ” value [18] was 0.06097 and the “Particle Number of positives” value [18] was 385. For the same substance, the “Particle Positive ratio” value [18] was 0.05915, the “Particle Expected value λ” value [19] was 0.03309 and the “Particle Number of positives” value [19] was 225. The “Particle Positive ratio” value [19] was 0.03255, the “Particle Expected value λ” value [20] was 0.02229 and the “Particle Number of positives” value [20] was 166. For the same substance, the “Particle Positive ratio” value [20] was 0.02204, the “Particle Expected value λ” value [21] was 0.01639 and the “Particle Number of positives” value [21] was 88. The “Particle Positive ratio” value [21] was 0.01625, the “Particle Expected value λ” value [22] was 0.2912 and the “Particle Number of positives” value [22] was 1,744. The “Particle Positive ratio” value [22] was 0.2526, the “Particle Expected value Δλ” value [23] was 0.1853 and the “Particle Δ Number of positives” value [23] was 1,212. For the same substance, the “Particle Δ Positive ratio” value [23] was 0.1691, the “Particle Expected value Δλ” value [24] was 0.1004 and the “Particle Δ Number of positives” value [24] was 620. For the same substance, the “Particle Δ Positive ratio” value [24] was 0.09556, the “Particle Expected value Δλ” value [25] was 0.05722 and the “Particle Δ Number of positives” value [25] was 362. The “Particle Δ Positive ratio” value [25] was 0.05562, the “Particle Expected value Δλ” value [26] was 0.02966 and the “Particle Δ Number of positives” value [26] was 202. For the same substance, the “Particle Δ Positive ratio” value [26] was 0.02922, the “Particle Expected value Δλ” value [27] was 0.01917 and the “Particle Δ Number of positives” value [27] was 143. The “Particle Δ Positive ratio” value [27] was 0.01899, the “Particle Expected value Δλ” value [28] was 0.01208 and the “Particle Δ Number of positives” value [28] was 65. The “Particle Δ Positive ratio” value [28] was 0.01201, the “Particle Expected value Δλ” value [29] was 0.2868 and the “Particle Δ Number of positives” value [29] was 1,721. The “Particle Δ Positive ratio” value [29] was 0.2493, the “Particle Expected value λ” value [12] was 0.2899 and the “Particle Positive ratio” value [12] was 0.2517. For the same substance, the “Particle Expected value λ” value [13] was 0.3046 and the “Particle Positive ratio” value [13] was 0.2626.
